Experimental findings from patent publication US20110104179A1 are described below.

Assay in all cases: cell-based or functional assay
For test [1], the target named is Arg- and Lys-specific proteinases of P. gingivalis ATCC 33277 whole cells (DQ BSA assay) (Porphyromonas gingivalis ATCC 33277).
Test [2] addresses Arg-gingipains of P. gingivalis ATCC 33277 whole cells (Porphyromonas gingivalis ATCC 33277).
Test [3] addresses Lys-gingipain (Kgp) of P. gingivalis ATCC 33277 whole cells (Porphyromonas gingivalis ATCC 33277) (UniProt B2RLK2).

For the substance “Non-glycosylated κ-casein(106-169) (from UniProt P02668 127-190) (peptide)”, the inhibition of proteinase activity against fluorescent BSA (DQ Green BSA), whole ATCC 33277 cells, peptide 500 µM in test [1] is 60 % inhibition.

As for αS1-casein(11-23) (peptide), in test [2], the Activity with ATCC33277, Arg-gingipains, peptide 100 µM alone (no inhibitor 29.23 + 0.06) worked out at 18; the Protease activity (%), Arg assay, ATCC 33277 whole cell, peptide 100 µM turned out to be 62%; the Protease activity (%), Arg assay, ATCC 33277 whole cell, peptide 200 µM is 39%; the Protease activity (%), Arg assay, ATCC 33277 whole cell, peptide 300 µM was 38%. In test [2], the inhibition of Arg-specific proteolytic activity, whole cells, peptide 100 µM alone was 40 % inhibition; the inhibition of Arg-specific proteolytic activity, whole cells, peptide and ZnCl2 in a 1:4 ratio was determined as 70 % inhibition. In test [3], the Protease activity (%), Lys assay, ATCC 33277 whole cell, peptide 100 µM was found to be 64%; the Protease activity (%), Lys assay, ATCC 33277 whole cell, peptide 200 µM stood at 43%; the Protease activity (%), Lys assay, ATCC 33277 whole cell, peptide 300 µM stood at 34%; the inhibition in the Lys-specific protease assays, whole cells, inhibitor mixture with ZnCl2 was 85 % inhibition.

On to β-casein(193-205) (peptide), for which the inhibition of whole cell Arg-specific proteolytic activity, peptide 200 µM in test [2] stood at 15 % inhibition.

Consider β-casein(193-209) (peptide), for which, in test [2], the Activity with ATCC33277, Arg-gingipains, peptide 100 µM alone (no inhibitor 29.23 + 0.06) was 20; the Protease activity (%), Arg assay, ATCC 33277 whole cell, peptide 100 µM stood at 69%; the Protease activity (%), Arg assay, ATCC 33277 whole cell, peptide 200 µM was determined as 50%; the Protease activity (%), Arg assay, ATCC 33277 whole cell, peptide 300 µM was determined as 50%. In test [2], the inhibition of Arg-specific proteolytic activity, whole cells, peptide 100 µM alone is 30 % inhibition; the inhibition of Arg-specific proteolytic activity, whole cells, peptide and ZnCl2 in a 1:4 ratio was found to be 70 % inhibition. For the same substance, in test [3], the Protease activity (%), Lys assay, ATCC 33277 whole cell, peptide 100 µM was 71%; the Protease activity (%), Lys assay, ATCC 33277 whole cell, peptide 200 µM worked out at 59%; the Protease activity (%), Lys assay, ATCC 33277 whole cell, peptide 300 µM worked out at 49%; the inhibition in the Lys-specific protease assays, whole cells, peptide: ZnCl2 mixture was found to be 90 % inhibition.

On to “κ-casein(106-137) (from UniProt P02668 127-158) (peptide)”, for which the inhibition of protease activity in the fluorescence assay (DQ Green BSA), whole ATCC 33277 cells, peptide 500 µM in test [1] was 37 % inhibition.

In test [2], “κ-casein(109-137) (peptide; modification not given)” came in with a Protease activity (%), Arg assay, ATCC 33277 whole cell, peptide 50 µM of 84% and a Protease activity (%), Arg assay, ATCC 33277 whole cell, peptide 100 µM of 36%.

For the substance κ-casein(117-123) (peptide), in test [2], the Arg-Specific Activity (%), ATCC 33277 whole cells, BApNA, peptide 200 µM came to 111%; the Arg-Specific Activity (%), ATCC 33277 whole cells, BApNA, peptide 500 µM came to 90%; the Arg-Specific Activity (%), ATCC 33277 whole cells, BApNA, peptide 1000 µM stood at 92%.

In test [2], κ-casein(127-137) (peptide) showed an Arg-Specific Activity (%), ATCC 33277 whole cells, BApNA, peptide 200 µM of 102%; an Arg-Specific Activity (%), ATCC 33277 whole cells, BApNA, peptide 500 µM of 97%; an Arg-Specific Activity (%), ATCC 33277 whole cells, BApNA, peptide 1000 µM of 82%.
